Results as given in US20100196361A1, “Method of inhibition of vascular development using an antibody” (DYAX CORP., priority 2003, published 2010).
Changes are numbered by the printed parent chain.

T1: human Tie1 Fc (Homo sapiens, UniProt P35590)
T1 construct: selected against the Tie1 extracellular domain fused to human Fc or to a histidine purification tag
T1 sequence (P35590 22-759 limits assumed): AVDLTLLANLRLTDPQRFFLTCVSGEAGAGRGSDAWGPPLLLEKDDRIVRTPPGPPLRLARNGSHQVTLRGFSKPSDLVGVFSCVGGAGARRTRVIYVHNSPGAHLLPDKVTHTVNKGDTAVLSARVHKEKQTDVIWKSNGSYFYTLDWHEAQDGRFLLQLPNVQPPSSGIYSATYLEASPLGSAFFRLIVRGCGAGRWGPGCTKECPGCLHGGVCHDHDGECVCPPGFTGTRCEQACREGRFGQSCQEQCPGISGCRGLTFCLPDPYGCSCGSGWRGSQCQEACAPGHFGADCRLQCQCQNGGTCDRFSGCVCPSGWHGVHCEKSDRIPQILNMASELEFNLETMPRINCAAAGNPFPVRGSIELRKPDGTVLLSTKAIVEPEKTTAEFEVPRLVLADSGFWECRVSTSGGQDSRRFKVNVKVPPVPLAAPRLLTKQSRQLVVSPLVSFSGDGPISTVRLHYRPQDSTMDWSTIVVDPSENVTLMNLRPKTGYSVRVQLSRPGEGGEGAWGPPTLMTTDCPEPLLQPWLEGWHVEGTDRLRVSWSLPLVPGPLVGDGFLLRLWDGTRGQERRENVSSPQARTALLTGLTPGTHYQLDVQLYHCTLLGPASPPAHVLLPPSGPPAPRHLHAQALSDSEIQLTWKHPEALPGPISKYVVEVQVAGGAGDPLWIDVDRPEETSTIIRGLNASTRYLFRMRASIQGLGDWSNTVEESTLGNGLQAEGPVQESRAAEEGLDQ

B1: E3: human anti-Tie1 antibody from phage Fab library, reformatted as IgG; HC variable SEQ ID NO:114, LC variable SEQ ID NO:116 (antibody, V domains shown)
VH: EVQLLESGGGLVQPGGSLRLSCAASGFTFSMYGMVWVRQAPGKGLEWVSVISPSGGNTGYADSVKGRFTISRDNSKNTLYLQVNSLRAEDTAVYYCARAPRGYSYGYYYWGQGTLVTVSSASTKGPSVFPLAPSSKSTSGG
VL: DIQMTQSPLSLSASVGDRVTITCRASQGIGHYLAWYQQKPGKVPKLLIYTASTLQSGVPSRFSGSGSGTDFTLTINSLQPEDVATYYCQQFNSYPHTFGQGTRLDIK
modifications: IgG constant regions; Synthetically generated peptide
B2: parental E3 Fab: soluble Fab fragment of the parental E3 anti-Tie1 antibody (antibody, V domains shown)
VH: B1 VH
VL: B1 VL
B3: germlined E3 Fab: soluble Fab of E3 with LC framework regions germlined to DPK4; LC variable SEQ ID NO:159 (antibody, V domains shown)
VH: B1 VH
VL: B1 VL with L9S, N76S, D105E
B4: DX-2210: E3 antibody in which the light chain has been germlined (antibody, V domains shown)
VH: B1 VH
VL: B1 VL with L9S, N76S, D105E

What was measured:
[1] = tested on: bFGF-induced angiogenesis; assay: […] plug assay in vivo; design: species or system mouse
Method: The germlined variant of the E3 IgG antibody was evaluated in an in vivo assay for angiogenesis induced by bFGF in […]™ plugs. Growth factor reduced […]™ (BD Biosciences, catalog #354230) was supplemented with 80 ng/ml of bFGF (R&D Systems, catalog #234-FSE). The A2-SV or an IgG4 E3 antibody (10 μg/ml) or PBS was injected subcutaneously into the abdominal area of NMRI nu/nu mice (150 μl of Matrigel/plug).
In the first assay, two mice were injected with […]™ supplemented with bFGF and soluble VEGFR-1 (10 μg/ml) as a positive control for an angiogenic inhibitor. At day 7 post-implantation mice were anesthetized and perfused through heart with 4% paraformaldehyde (PFA) in phosphate buffered saline (PBS). […]™ plugs and a piece of liver were removed and embedded in paraffin. Sections were cut and stained with hematoxylin and eosin (H&E).
In a second assay, mice were treated as described above, and then anesthetized eight days post-implantation and injected with fluorescein-conjugated tomato (lycopersicon esculentum) lectin (100 μg in 200 μl of PBS; Vector, catalog #FL-1171) into the tail vein. After five min circulation the animals were perfused through the heart with 10 ml of PBS followed by 10 ml of 4% PFA in PBS. […]™ plugs and pieces of kidney and liver were removed and frozen in OCT (Tissue-Tek). Nuclei were visualized on sections by using […]® mounting medium containing DAPI (Vector) and analyzed under fluorescence microscopy.
To assess further the potential anti-angiogenic activity of the E3 antibody, a third assay examining the effect of DX-2210 (E3 antibody with germlined light chain) on bFGF-induced endothelial cell tube formation in […]™ plugs was performed. […] In order to quantitate the amount of blood vessels in the […]™ plugs, sections were cut and either stained for endothelial cell content using an anti-CD-31 antibody or analyzed under fluorescence microscopy to assess the amount of functional blood vessels (tomato lectin staining) (data not shown). In addition, the amount of blood vessels per unit area was quantitated.

[2] = target: T1, human Tie1 Fc; assay: BIAcore, Fab over biotinylated Tie1-Fc on streptavidin chip; format: binding; conditions: Fab analyte; for kon: 830 RU
Method: Recombinant purified human Tie1-Fc antigen (Stock 2.45 mg/ml) was biotinylated using the EZ-link Sulfo-NHS-SS-Biotin (Pierce, Cat. 21331). The reaction was performed for 2 hours on ice in 50 mM sodium carbonate buffer, pH 9.6, in the presence of a 5-fold molar excess of biotinylating agent and was stopped by the addition of Tris-HCl, pH 7.5 (50 mM final concentration) followed by a 1-hour incubation on ice. Samples were then dialyzed against PBS. The antigen was then diluted 1/100 fold in HBS and was then captured onto a streptavidin chip. This was coated to a density of 830RU (resonance units). All analysis was performed in HBS buffer. The parental Fab E3 and germlined E3 Fab were prepared as described above. A stock solution of 0.587 mg/ml (11740 nM) was diluted 1/587 in HBS+BSA to obtain a stock of 20 nM and the germlined Fab E3 0.025 mg/ml (500 nM) was diluted 1/25 in HBS+BSA to obtain a stock of 20 nM. Serial dilutions were made of each Fab preparation to obtain 10 nM, 5 nM, 2.5 nM, and 1.25 nM solutions. For the association phase samples were injected at 30 μl/min for 4 minutes using kinject program. This was followed by a 10 minutes dissociation phase, any remaining sample was stripped from the Tie1 Fc surface at a flow of 50 μl/min with a single injection of 5 mM NaOH+1M NaCl for 18 seconds. All samples were run and analyzed in duplicate.
Sensorgrams were analyzed using the simultaneous ka/kd fitting program with 1:1 model in the BIAEVALUATION™ software 3.1.

Molecule	fluorescein-lectin staining of MATRIGEL plugs ([1]; bFGF, antibody in plug, eight days post-implantation)	koff [2] [s⁻¹]	kon [2] [M⁻¹ s⁻¹]	inhibition of bFGF-induced angiogenesis (blood vessels per unit area) ([1]; MATRIGEL with HUVECs and bFGF, Balb/c nu/nu mice, day 8) [%]	H&E staining of MATRIGEL plugs ([1]; bFGF 80 ng/ml, antibody 10 μg/ml in plug, NMRI nu/nu mice, day 7)
B1	no staining could be detected				
B2		0.00061	300000		
B3		0.00102	300000		
B4				70	neither modification of the matrix nor organization of the cells observed
